In paper PMC9465852, “Comparative analyses of vertebrate CPEB proteins define two subfamilies with coordinated yet distinct functions in post-transcriptional gene regulation”:

What was measured:
CPEB4 [1] = target: T1, CPEB4 (Xenopus laevis, UniProt A0A1L8GV75 1-702); test: AlphaScreen; 50 nM protein, 0.5-75 nM RNA; CPEB4 binds A- and G-CPE equally well; 10 mM HEPES pH 7.4, 100 mM KCl, 3 mM MgCl2, 1 mM DTT, 0.2 mg/mL tRNA, 0.1% Tween; room temperature; 50 or 75 nM protein; conditions: protein: recombinant; tags: 6xHis; label: 3' biotin; single strand
CPEB4 [2] = target: T1, CPEB4; test: AlphaScreen; 50 nM protein, 0.5-75 nM RNA; equal to or better than CPE-A; 10 mM HEPES pH 7.4, 100 mM KCl, 3 mM MgCl2, 1 mM DTT, 0.2 mg/mL tRNA, 0.1% Tween; room temperature; 50 or 75 nM protein; conditions: protein: recombinant; tags: 6xHis; label: 3' biotin; single strand

T1 sequence (A0A1L8GV75 entry or part of it): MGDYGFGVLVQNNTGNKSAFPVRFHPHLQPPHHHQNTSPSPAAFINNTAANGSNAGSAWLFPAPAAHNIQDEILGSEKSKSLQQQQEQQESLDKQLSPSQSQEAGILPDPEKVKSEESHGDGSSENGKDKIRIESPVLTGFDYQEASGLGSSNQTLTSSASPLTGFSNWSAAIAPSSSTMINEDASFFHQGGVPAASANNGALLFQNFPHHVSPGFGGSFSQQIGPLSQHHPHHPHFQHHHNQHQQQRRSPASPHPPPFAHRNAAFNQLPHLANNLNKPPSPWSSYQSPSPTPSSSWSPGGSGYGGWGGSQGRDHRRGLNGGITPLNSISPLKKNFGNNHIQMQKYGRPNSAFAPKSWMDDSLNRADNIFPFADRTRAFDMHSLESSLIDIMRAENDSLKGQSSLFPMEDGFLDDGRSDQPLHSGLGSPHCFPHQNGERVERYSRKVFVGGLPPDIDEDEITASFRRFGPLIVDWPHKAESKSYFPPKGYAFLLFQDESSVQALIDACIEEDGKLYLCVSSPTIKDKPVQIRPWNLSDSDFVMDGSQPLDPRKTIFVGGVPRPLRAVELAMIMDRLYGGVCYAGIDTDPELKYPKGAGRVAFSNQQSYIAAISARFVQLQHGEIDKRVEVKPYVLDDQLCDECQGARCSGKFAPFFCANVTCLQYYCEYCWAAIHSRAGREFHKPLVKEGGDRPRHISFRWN

B1: CPE-A (ssRNA)
RNA: AGUGUACAGUGUUUUUAAUAGUUUGUUG
modifications: 3' biotin
binding result (CPEB4 [1]): binds

B2: CPE-G (ssRNA)
RNA: AGUGUACAGUGUUUUUGUAAGUUUGUUG
modifications: 3' biotin
binding result (CPEB4 [2]): binds
